Assay: yeast display, Sf9 membrane polyspecificity reagent, FACS + sequencing; frameworks hold sequencing errors
Outline: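 Synthetic nanobody libraries on Saccharomyces cerevisiae BJ5465 were galactose-induced for 36–48 hours, stained 1 hour at 4 °C with 10% biotinylated, detergent-solubilized Sf9 membrane reagent and enriched on streptavidin microbeads. FACS then separated cells into low and high (top ~1%) gates by anti-HA (expression) and streptavidin (reagent binding) fluorescence. Genes were colony-PCR amplified, MiSeq 2 × 250 sequenced and CDR-length filtered. A clone's polyreactivity label is that of its gate of origin.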

Sequence	polyreactivity (PSR sort gate)
QVQLLESGGGLVQAGGSLRLSCAASGFTFGRYAMGWYRQAPGKERELVAAINTSGDRTFYADSVKGRFTISRDNAKNTVYLQMNSLKPVDTAVYYCAADVQSWVYPGSLYYWTYDFWGQGTQVTVSS	high polyreactivity
QVQLLESGGGLVQAGGSLRLSCAASGFTFTYYAMGWYRQAPGKERELVAAISRRGGSTYYADSVKGRFTISRDNAKNTVYLQMNSLKPEDTAVYYCARDYNSAVGMVYWGQGTQVTVSS	high polyreactivity
QVQLLESGGGLVQAGGSLRLSCAASGITFSRNAMGWYRQAPGKERELVATITSGGSTNYADSVKGRFTITRDNAMNTVYLQMISLKPEDTAVYYCYAVWNTFISGRSYEYWGQGTQVTVSS	low polyreactivity
QVQLLESGGGLVQAGGSLRLSCAASGLTICYYAMGWYRQAPGKEREYVAAITSRGGDTYYADSVKGRFTISRDNAKNTVYLEMNSLKPEDTAVYYCAVRPRYYGTYRYYYWGQGTQVTVSS	high polyreactivity
QVQLLESGGGLVQAGGSLRLSCAASGLTIKQYAMGWYRQAPGKESELVAAISKSGGRTYYADSVKGRFTISRDNAKNTVYLQMNSLKPEDTAVYYCNARAGQRQGWEYDYWGQGTQVTVSS	high polyreactivity
QVQLLESGGGLVQAGGSLRLSCAASGRIFNPYAMGWFRQARGKERALVAASSSCGDRTFYADSVKGRFTISRDNAKNTVYLQMNSRKPEDTAVYFCNTVVYTRFRPWRYGYCGQGTQVTVSS	high polyreactivity
QVQLLESGGGLVQAGGSLRLSCAASGRIFPYNAMGWYRQAPGKERELVAAISRSGGRTYYADSVKGRFTISRDNAKNTVYLQRNSLKPEDTAVYYCAAKYQAGENYWGQGTQVTVSS	high polyreactivity
QVQLLESGGGLVQAGGSLRLSCAASGRIFSFYTMGWYRQAPGKERELVAAITWRGGSTYYADSVKGRFTISRDNAKNTVYLQMNSLKPEDTAVYYCAAEVYGAVYDYWGQGTQVTVSS	low polyreactivity
QVQLLESGGGLVQAGGSLRLSCAASGRIFSRYAMGWYRQAPGKERELVASISWSGDGTYYADSVKGRFTISRDNAKNTVYLQMNSLKPEDTAVYYCAAAPWDAPWSGYEYWGQGTEVTVSS	high polyreactivity
QVQLLESGGGLVQAGGSLRLSCAASGRIFVRNAMGWYRQAPGKERELVAAITSSGGRTYYADSVKGRFTISRDNAKNTVYLQMNSLKPEDTAVYYCNADDFGYASYEYWGQGSQVTVSS	low polyreactivity
QVQLLESGGGLVQAGGSLRLSCAASGRIIPYYAMGWYRQAPGKERELVATITSGGSTYYADSVKGRFTISRDNAKNTVYLQRNSLKPEDTAVYYCAARYPSIYYYRYDYWGQGTHVTVSS	high polyreactivity
QVQLLESGGGLVQAGGSLRLSCAASGRIYLYAMGWYRQTPGKERELVAAISYSGGSTYYADSVKGRFTISRDNAKNTVYLQMNSLKPEDTAVYYCAAEAGSYWRWFWYDSWGQGTQVTVSS	high polyreactivity
QVQLLESGGGLVQAGGSLRLSCAASGRTFEKNAMGWYRQAPGNERELVASITSVGSTDYADSVKGSFTISRDNAKNTVYLQMNSLKPEDNAVYYCAKTLGSQNYDFDYWGQGTQVNVSS	low polyreactivity
QVQLLESGGGLVQAGGSLRLSCAASGRTFHFNAMGWYRKAPWKERELVAAITNSGGRTSYADSVKGRFTISRDNAKNTVYLQMNSLKPEDTAVYYCNVEVTYSSGKYDYWGQGTQVTVSS	low polyreactivity
QVQLLESGGGLVQAGGSLRLSCAASGRTFRSYAMGWYRQAPGKERELVAAISRSDGSTYYAESVKVRFTISRDNAKNTVYLQMNSLKPEDTAVYYCARSLYASSYLMYYWGQGTQVTVSS	high polyreactivity
QVQLLESGGGLVQAGGSLRLSCAASGRTFRYNAMGWYRQAPGKERELVAAITGSGGSTYYADSVKGRFTISRDNAKNTVYLQMNSLKPEDTAVYYCARAYSYRLYPYGSWGQGTQVTVSS	high polyreactivity
QVQLLESGGGLVQAGGSLRLSCAASGRTFYGYTMGWYRQAPGKEWELVAAISTGGGSTYYADSVKGRFTISRDTAKNTVYLQMNSMKREDTAVYYCAARGGSYSFRRYNFWGQGTQVTVSS	high polyreactivity
QVQLLESGGGLVQAGGSLRLSCAASGRTIRNNTMGWYRQAPGKERELVARITWSGGSTYYADSVKGRFTISRDNAKNNVYLKMNRLKQEDTAVYYCAAVPILVYLWFQSYTGDYDYWGQGTQVTVSS	low polyreactivity
QVQLLESGGGLVQAGGSLRLSCAASGSIFRGYAMGWYRKAPGKERELVAAINWSGSSTYYADSVKGRFTISRDNAKKTVYLQMNSLKPEDTAVYYCARVYYNRNLGGDYWGQGTQVTVSS	low polyreactivity
QVQLLESGGGLVQAGGSLRLSCAASGSIFSYNAMGWYRQAPGTERELVAAITSGDSTNYADSVKGRFTISRDNAKNTVYLQMNSLKPEDTAVYYCAADPVLPAFGYVGTSLGYYWGQGTQVTVSS	low polyreactivity
QVQLLESGGGLVQAGGSLRLSCAASGSNFYVNAMGWYRQAPGKERELVAAITSTGTTHYADSVKGRFTISRDNAKNTDYLHMNSLKPEDTAVYYCAAYSRYQSRRYYYWGQGTQVTVSS	high polyreactivity
QVQLLESGGGLVQAGGSLRLSCAASGSSFSHYTMGWYRQAPGKERELVAAINYGGASTYYADSVKGRFTISRDNAKNTVYLQMNSLKPEYTAVYYCAAANRPSEQDNYWGQGTQVTVSS	low polyreactivity

Sequence	polyreactivity (PSR sort gate)
QVQLLESGGGLVQAGGSLRLSCAASGSTFGVYAMGWYRQAPGKEREFVAAINARGTRTRYADSVKGRFTISRDNAKNTVYLQMNSLKPDDTAVYYCAAVWYGYYSIDTYGYWGQGTQVTVSS	high polyreactivity
QVQLLESGGGLVQAGGSLRLSCAASGSTFNVYAMGWYRQAPGKERELVAAINWSGGNTYYADSVKGRFTISRDNAKNTVYLQMNSLNPEDTAVDYCNADGFVGTPSVDYDYWGQGTQVTVSS	low polyreactivity
QVQLLESGGGLVQAGGSLRLSCAASGSTFQRYVMGWYRQAPGKERELVATITKSGGSTYYADSVKGRFTISRDIAKNTVYLQMNSLKPEDTAVYNCAAYLQWAFRGYYHWGQGTQVTVTS	high polyreactivity
QVQLLESGGGLVQAGGSLRLSCAASGSTFYFNAMGWYSQAPGKDSELVAGIRYSGSSTYYADSVKGRFTISRDNAKNTVYLQMHSLKPEDTAVYYCAASLWRWRFSRFGYWGQGTQVTVSS	high polyreactivity
QVQLLESGGGLVQAGGSLRLSCAASGSTFYINTMGWSRQAPGKERELVAAISWTGGRTYYADSVKGRFTISRDNAKNTVYLQMHSLKPEDTAVYYCAAYYNIPDRRRVGYDYWGQGTQVTVSS	high polyreactivity
QVQLLESGGGLVQAGGSLRLSCAASGYFFSDNTMGWYRQAPGKERELVAAITSGGSSYYADSVKGGFTISRDIAKNTVYLQMNSLKQEDTAVYYCDKDVLHVRRVSGQYYSVDYWGQGTQVTVSS	low polyreactivity
QVQLLESGGGLVQAGGSLRLSCAASGYNFGNYAMGWYRQAPGKERELVAAITSRGGRTYYADSVKGRFTISRDNAKNSFYLQMNSLIPVDTGVYYCYRAVTTKDGYWGQCTQVTVSS	high polyreactivity
QVQLLESGGGLVQAGGSLRLSCAATGRIFFYGMGWYRQAPGNETELVATITSVSNTYYADSVKGRFTISRDNAKNTGYLLMNSLKPEDTAVYYCAARPDRYRYRYGYWGQGTQVTVSS	high polyreactivity
QVQLLESGGGLVQAGGSLRLSCAPSGFTFLYYAMGWYIQAPGKERELVAVISRSGGRTYYADSVKGRFTISRDNAKNTVYLLMNSLKPEDTAVYYCAAALGVALNDYWGQGTQVNVSS	high polyreactivity
QVQLLESGGGLVQAGGSLRLSCAPSGRIFGYYAMGWYRQEPGKERELVAAISRGGSTNYADSVKGRFTISRDNAKNTVYLQMNSLKPEDTAVYYCAALVYRSYNNYYWGQGTQVTVSS	high polyreactivity
QVQLLESGGGLVQAGGSLRLSSAASGRIFLGYTMGWYRPAPGNERELVAAIRLSGGTTRYADSVKGRFTISRDNAKNTVYLQMYSLKPEDTAVYYCAARDRRTYSLYYWGQGSQVTVSS	high polyreactivity
QVQLLESGGGLVQAGRSLRLSCAASGRIFVYYAMGWYRQAPGQERELVATISWSGGSTYYADSVKGRFTISRDNAKNTVYLELNSLKPEDTAVYYCAAEKYISYYSVKRQENGYWGQGSQVTVSS	low polyreactivity
QVQLLESGVGLVQAGGILRLSCAASGITFSRYTMGWYRQAPGKERELVAANSSAGNTYYADSVNGRFTISRDNAKNTVYLQMNSLKPEDTAVYYCAREYTYYPRWVGYDAYGEDYWGQGTQVTVSS	low polyreactivity
QVQLLESRGGLVQAGGSLRLSCAASGSNFDVYDMGWYRQAPGKERELVACISWDGDRTYYADSVKGRFTISRDNAKNTVYLQMKSLKPEDTAVYYCAVDSASDTIYDYWGQGTQVTVSS	low polyreactivity
QVQLLESVGGLDQAGGSLRLSCAASGRTFKVYAMGWYRKATVKERELVAAISFSGGTTYYADSVKGRFTISRDNAKNTVYLQMNSLKQEDTAVSYCAAKRYGEYRARGYYYWGQGTQVTVSS	high polyreactivity
QVQLLESVGGLVQAGGSLRLSCDASGYTYCGYAMGSYRQAPGKERELVAAISRSGGSTYYADTVKGRFTISRDHAKNTVYLQMNSLKPEDTAVYYCNARTEDYDGANNYWGHGTQVTVSS	low polyreactivity
QVQLLETGGGLVQAGGSLRLSCAPSGFTIYRYAMGWYKQAPGKERELVAAISSGTSTYYADTVKGRFTISRDNAKKTVYLQINSLKPEVTEVYYCAVAGVSLYGTLYDYWGLGTQVTVSS	high polyreactivity
QVQLLETGGGLVQAGGSLRLSCAPSGRIFRQYVMGWSRQAPGKERELVAAISRSGGTTYYADSVKGRFTISRDNAKNTVYLQMNILKPEDTAVYYCAASFRGQIVGYWGQGTQVTLSS	high polyreactivity
QVQLQDSGGGLVQAGGSLRLSCAASGTIIWYSDLGWYRQAPGKERKFVAGIGFGSNSNFADSVRGRFTISRDNAKITVYLQMNSLKPEDTAVYYCEAVWFDYSTHRYWGQGTQVTVCS	high polyreactivity
QVQLQDSGGGLVQAGGSLRQRCAASGYISSLAAMGWYRQAPGKERDLVAGNDLGTITNYADSVKGSLTISRDNAKNTVYLQMNSLIPEDTAVYYCAPTWYYHYNDWKHWYEYGYWGQGTQVTVSS	low polyreactivity
QVQLQEGGGGLVQAGGSLRLSCAASGYIFNGDWKGWYRQAPGKERELVATINYGATTNYADSVKGRFTISRDNAKNTVYLQMNSLKPEDTAVYYCAVGGHGAQLYVYWGQGTQVTVSN	high polyreactivity
